{"source": "paper PMC7367873", "about": "“Dissecting the sequence determinants for dephosphorylation by the catalytic subunits of phosphatases PP1 and PP2A” (Nature Communications, 2020)", "molecules": {"B1": {"name": "CAPRIN1 (protein, UniProt Q14444 2-709, looked up)", "Caprin-1": "PSATSHSGSGSKSSGPPPPSGSSGSEAAAGAGAAAPASQHPATGTGAVQTEAMKQILGVIDKKLRNLEKKKGKLDDYQERMNKGERLNQDQLDAVSKYQEVTNNLEFAKELQRSFMALSQDIQKTIKKTARREQLMREEAEQKRLKTVLELQYVLDKLGDDEVRTDLKQGLNGVPILSEEELSLLDEFYKLVDPERDMSLRLNEQYEHASIHLWDLLEGKEKPVCGTTYKVLKEIVERVFQSNYFDSTHNHQNGLCEEEEAASAPAVEDQVPEAEPEPAEEYTEQSEVESTEYVNRQFMAETQFTSGEKEQVDEWTVETVEVVNSLQQQPQAASPSVPEPHSLTPVAQADPLVRRQRVQDLMAQMQGPYNFIQDSMLDFENQTLDPAIVSAQPMNPTQNMDMPQLVCPPVHSESRLAQPNQVPVQPEATQVPLVSSTSEGYTASQPLYQPSHATEQRPQKEPIDQIQATISLNTDQTTASSSLPAASQPQVFQAGTSKPLHSSGINVNAAPFQSMQTVFNMNAPVPPVNEPETLKQQNQYQASYNQSFSSQPHQVEQTELQQEQLQTVVGTYHGSPDQSHQVTGNHQQPPQQNTGFPRSNQPYYNSRGVSRGGSRGARGLMNGYRGPANGFRGGYDGYRPSFSNTPNSGYTQSQFSAPRDYSGYQRDGYQQNFKRGSGQSGPRGAPRGRGGPPRPNRGMPQMNTQQVN"}, "B2": {"name": "P4HA1 (protein, UniProt P13674 18-534, looked up)", "Prolyl 4-hydroxylase subunit …": "HPGFFTSIGQMTDLIHTEKDLVTSLKDYIKAEEDKLEQIKKWAEKLDRLTSTATKDPEGFVGHPVNAFKLMKRLNTEWSELENLVLKDMSDGFISNLTIQRQYFPNDEDQVGAAKALLRLQDTYNLDTDTISKGNLPGVKHKSFLTAEDCFELGKVAYTEADYYHTELWMEQALRQLDEGEISTIDKVSVLDYLSYAVYQQGDLDKALLLTKKLLELDPEHQRANGNLKYFEYIMAKEKDVNKSASDDQSDQKTTPKKKGVAVDYLPERQKYEMLCRGEGIKMTPRRQKKLFCRYHDGNRNPKFILAPAKQEDEWDKPRIIRFHDIISDAEIEIVKDLAKPRLRRATISNPITGDLETVHYRISKSAWLSGYENPVVSRINMRIQDLTGLDVSTAEELQVANYGVGGQYEPHFDFARKDEPDAFKELGTGNRIATWLFYMSDVSAGGATVFPEVGASVWPKKGTAVFWYNLFASGEGDYSTRHAACPVLVGNKWVSNKWLHERGQEFRRPCTLSELE"}, "B3": {"name": "MAP7 (protein, UniProt Q14244 2-749, looked up)", "Ensconsin": "AELGAGGDGHRGGDGAVRSETAPDSYKVQDKKNASSRPASAISGQNNNHSGNKPDPPPVLRVDDRQRLARERREEREKQLAAREIVWLEREERARQHYEKHLEERKKRLEEQRQKEERRRAAVEEKRRQRLEEDKERHEAVVRRTMERSQKPKQKHNRWSWGGSLHGSPSIHSADPDRRSVSTMNLSKYVDPVISKRLSSSSATLLNSPDRARRLQLSPWESSVVNRLLTPTHSFLARSKSTAALSGEAASCSPIIMPYKAAHSRNSMDRPKLFVTPPEGSSRRRIIHGTASYKKERERENVLFLTSGTRRAVSPSNPKARQPARSRLWLPSKSLPHLPGTPRPTSSLPPGSVKAAPAQVRPPSPGNIRPVKREVKVEPEKKDPEKEPQKVANEPSLKGRAPLVKVEEATVEERTPAEPEVGPAAPAMAPAPASAPAPASAPAPAPVPTPAMVSAPSSTVNASASVKTSAGTTDPEEATRLLAEKRRLAREQREKEERERREQEELERQKREELAQRVAEERTTRREEESRRLEAEQAREKEEQLQRQAEERALREREEAERAQRQKEEEARVREEAERVRQEREKHFQREEQERLERKKRLEEIMKRTRRTEATDKKTSDQRNGDIAKGALTGGTEVSALPCTTNAPGNGKPVGSPHVVTSHQSKVTVESTPDLEKQPNENGVSVQNENFEEIINLPIGSKPSRLDVTNSESPEIPLNPILAFDDEGTLGPLPQVDGVQTQQTAEVI"}, "B4": {"name": "SLC43A3 (protein, UniProt Q8NBI5 1-491, looked up)", "Equilibrative nucleobase …": "MAGQGLPLHVATLLTGLLECLGFAGVLFGWPSLVFVFKNEDYFKDLCGPDAGPIGNATGQADCKAQDERFSLIFTLGSFMNNFMTFPTGYIFDRFKTTVARLIAIFFYTTATLIIAFTSAGSAVLLFLAMPMLTIGGILFLITNLQIGNLFGQHRSTIITLYNGAFDSSSAVFLIIKLLYEKGISLRASFIFISVCSTWHVARTFLLMPRGHIPYPLPPNYSYGLCPGNGTTKEEKETAEHENRELQSKEFLSAKEETPGAGQKQELRSFWSYAFSRRFAWHLVWLSVIQLWHYLFIGTLNSLLTNMAGGDMARVSTYTNAFAFTQFGVLCAPWNGLLMDRLKQKYQKEARKTGSSTLAVALCSTVPSLALTSLLCLGFALCASVPILPLQYLTFILQVISRSFLYGSNAAFLTLAFPSEHFGKLFGLVMALSAVVSLLQFPIFTLIKGSLQNDPFYVNVMFMLAILLTFFHPFLVYRECRTWKESPSAIA"}, "B5": {"name": "STT3B (protein, UniProt Q8TCJ2 2-826, looked up)", "Dolichyl-diphosphooligosacchar …": "AEPSAPESKHKSSLNSSPWSGLMALGNSRHGHHGPGAQCAHKAAGGAAPPKPAPAGLSGGLSQPAGWQSLLSFTILFLAWLAGFSSRLFAVIRFESIIHEFDPWFNYRSTHHLASHGFYEFLNWFDERAWYPLGRIVGGTVYPGLMITAGLIHWILNTLNITVHIRDVCVFLAPTFSGLTSISTFLLTRELWNQGAGLLAACFIAIVPGYISRSVAGSFDNEGIAIFALQFTYYLWVKSVKTGSVFWTMCCCLSYFYMVSAWGGYVFIINLIPLHVFVLLLMQRYSKRVYIAYSTFYIVGLILSMQIPFVGFQPIRTSEHMAAAGVFALLQAYAFLQYLRDRLTKQEFQTLFFLGVSLAAGAVFLSVIYLTYTGYIAPWSGRFYSLWDTGYAKIHIPIIASVSEHQPTTWVSFFFDLHILVCTFPAGLWFCIKNINDERVFVALYAISAVYFAGVMVRLMLTLTPVVCMLSAIAFSNVFEHYLGDDMKRENPPVEDSSDEDDKRNQGNLYDKAGKVRKHATEQEKTEEGLGPNIKSIVTMLMLMLLMMFAVHCTWVTSNAYSSPSVVLASYNHDGTRNILDDFREAYFWLRQNTDEHARVMSWWDYGYQIAGMANRTTLVDNNTWNNSHIALVGKAMSSNETAAYKIMRTLDVDYVLVIFGGVIGYSGDDINKFLWMVRIAEGEHPKDIRESDYFTPQGEFRVDKAGSPTLLNCLMYKMSYYRFGEMQLDFRTPPGFDRTRNAEIGNKDIKFKHLEEAFTSEHWLVRIYKVKAPDNRETLDHKPRVTNIFPKQKYLSKKTTKRKRGYIKNKLVFKKGKKISKKTV"}}, "data": [{"system": "GFP-14-3-3β", "experiment": "GFP-14-3-3β co-IP with LC-MS/MS, untreated GFP-14-3-3β versus GFP control (14-3-3 interactome)", "type": "binding, human", "settings": "log2 difference; pairwise comparison untreated vs GFP, label-free quantification, 3 replicates each", "values": [{"molecule": "B1", "Difference (log2), untreated vs GFP": -0.3406}, {"molecule": "B2", "Difference (log2), untreated vs GFP": -0.8349}, {"molecule": "B3", "Difference (log2), untreated vs GFP": -0.1668}, {"molecule": "B4", "Difference (log2), untreated vs GFP": -0.216}, {"molecule": "B5", "Difference (log2), untreated vs GFP": -0.7683}]}, {"system": "GFP-14-3-3β and its binding proteins", "experiment": "GFP-14-3-3β co-IP with LC-MS/MS label-free quantification, untreated versus PP1c-treated", "parameters": "species or system human", "settings": "log2 difference; pairwise comparison PP1 vs untreated, label-free quantification, 3 replicates each", "values": [{"molecule": "B1", "Difference (log2), PP1 vs untreated": 1.323}, {"molecule": "B2", "Difference (log2), PP1 vs untreated": 1.3164}, {"molecule": "B3", "Difference (log2), PP1 vs untreated": 1.312}, {"molecule": "B4", "Difference (log2), PP1 vs untreated": 1.303}, {"molecule": "B5", "Difference (log2), PP1 vs untreated": 1.284}]}]}
